Measurements published in the MegaScale stability set (Tsuboyama et al. 2023).

B1: EEHEE_rd3_0130 (parent)
chain: TKIIVNGKTFTAPTEEEAQKIAEKLAKKAGLTVHKKNGTFELK

Variants of: B1
Assay: folding stability dG (cDNA display proteolysis); higher = more stable
Settings: PBS, room temperature

Going from TKIIVNGKTFTAPTEEEAQKIAEKLAKKAGLTVHKKNDTFELK to TKIIVNGKTFTAPTEEEAQKIAEKLAKKAGLTVHKKNATFELK, the “folding stability dG” value falls from 0.488 kcal/mol to -0.621 kcal/mol.

Going from TKIIVNGKTFTAPTEEEAQKIAEKLAKKAGLTVHKKNTTFELK to TKIIVNGKTFTAPTEEEAQKIAEKLAKKAGLTVHKKNQTFELK, the “folding stability dG” value rises from -0.511 kcal/mol to -0.217 kcal/mol.

Going from TKIIVNGKTFTAPTEEEAQKIAEKLAKKAGLTVFKKNGTFELK to TKIIVNGKTFTAPTEEEAQKIAEKLAKKAGLTVPKKNGTFELK, the “folding stability dG” value falls from 0.97 kcal/mol to -0.455 kcal/mol.

Going from TKIIVNGKTFTAPTEEEAQKIAEKLAKKAGLTVLKKNGTFELK to TKIIVNGKTFTAPTEEEAQKIAEKLAKKAGLTVCKKNGTFELK, the “folding stability dG” value rises from 0.902 kcal/mol to 1.31 kcal/mol.

Going from TKIIVNGKTFTAPTEEEAQKIAEKLAKKAGLTVDKKNGTFELK to TKIIVNGKTFTAPTEEEAQKIAEKLAKKAGLTVVKKNGTFELK, the “folding stability dG” value rises from 0.195 kcal/mol to 1.25 kcal/mol.

Going from TKIIVNGKTFTAPTEEEAQKIAEKLAKKAGLTVKKKNGTFELK to TKIIVNGKTFTAPTEEEAQKIAEKLAKKAGLTVQKKNGTFELK, the “folding stability dG” value falls from 0.497 kcal/mol to 0.444 kcal/mol.

First: TKIIVNGKTFTAPTEEEAQKIAEKLAKKAGLTVEKKNGTFELK
Second: TKIIVNGKTFTAPTEEEAQKIAEKLAKKAGLTVMKKNGTFELK
The “folding stability dG” value of the first is higher: 0.679 kcal/mol for the first, 0.601 kcal/mol for the second.

Going from TKIIVNGKTFTAPTEEEAQKIAEKLAKKAGLTVSKKNGTFELK to TKIIVNGKTFTAPTEEEAQKIAEKLAKKAGLTVRKKNGTFELK, the “folding stability dG” value rises from 0.682 kcal/mol to 0.72 kcal/mol.

Compared with TKIIVNGKTFTAPTEEEAQKIAEKLAKKAGLTVIKKNGTFELK, TKIIVNGKTFTAPTEEEAQKIAEKLAKKAGLTVNKKNGTFELK is lower in “folding stability dG” value: 1.2 kcal/mol for the first, 0.474 kcal/mol for the second.

First: TKIIVNGKTFTAPTEEEAQKIAEKLAKKAGLTVYKKNGTFELK
Second: TKIIVNGKTFTAPTEEEAQKIAEKLAKKAGLTVTKKNGTFELK
The “folding stability dG” value of the first is higher: 1.14 kcal/mol for the first, 0.992 kcal/mol for the second.

First: TKIIVNGKTFTAPTEEEAQKIAEKLAKKAGLTVAKKNGTFELK
Second: TKIIVNGKTFTAPTEEEAQKIAEKLAKKAGLTVWKKNGTFELK
The “folding stability dG” value of the first is higher: 0.451 kcal/mol for the first, 0.405 kcal/mol for the second.

Going from TKIIVNGKTFTAPTEEEAQKIAEKLAKKAGLTVGKKNGTFELK to TKIIVNGKTFTAPTEEEAQKIAEKLAKKAGLTVHTKNGTFELK, the “folding stability dG” value rises from 0.117 kcal/mol to 0.197 kcal/mol.

First: TKIIVNGKTFTAPTEEEAQKIAEKLAKKAGLTVHDKNGTFELK
Second: TKIIVNGKTFTAPTEEEAQKIAEKLAKKAGLTVHLKNGTFELK
The “folding stability dG” value of the first is lower: -0.099 kcal/mol for the first, 0.661 kcal/mol for the second.

First: TKIIVNGKTFTAPTEEEAQKIAEKLAKKAGLTVHYKNGTFELK
Second: TKIIVNGKTFTAPTEEEAQKIAEKLAKKAGLTVHSKNGTFELK
The “folding stability dG” value of the first is higher: 1.55 kcal/mol for the first, 0.33 kcal/mol for the second.

Compared with TKIIVNGKTFTAPTEEEAQKIAEKLAKKAGLTVHAKNGTFELK, TKIIVNGKTFTAPTEEEAQKIAEKLAKKAGLTVHVKNGTFELK is higher in “folding stability dG” value: 0.318 kcal/mol for the first, 0.732 kcal/mol for the second.

Compared with TKIIVNGKTFTAPTEEEAQKIAEKLAKKAGLTVHGKNGTFELK, TKIIVNGKTFTAPTEEEAQKIAEKLAKKAGLTVHPKNGTFELK is lower in “folding stability dG” value: 0.063 kcal/mol for the first, -0.427 kcal/mol for the second.

Compared with TKIIVNGKTFTAPTEEEAQKIAEKLAKKAGLTVHIKNGTFELK, TKIIVNGKTFTAPTEEEAQKIAEKLAKKAGLTVHFKNGTFELK is higher in “folding stability dG” value: 0.718 kcal/mol for the first, 1.61 kcal/mol for the second.

First: TKIIVNGKTFTAPTEEEAQKIAEKLAKKAGLTVHMKNGTFELK
Second: TKIIVNGKTFTAPTEEEAQKIAEKLAKKAGLTVHRKNGTFELK
The “folding stability dG” value of the first is lower: 0.631 kcal/mol for the first, 0.798 kcal/mol for the second.

First: TKIIVNGKTFTAPTEEEAQKIAEKLAKKAGLTVHNKNGTFELK
Second: TKIIVNGKTFTAPTEEEAQKIAEKLAKKAGLTVHQKNGTFELK
The “folding stability dG” value of the first is higher: 0.482 kcal/mol for the first, 0.41 kcal/mol for the second.

Going from TKIIVNGKTFTAPTEEEAQKIAEKLAKKAGLTVHHKNGTFELK to TKIIVNGKTFTAPTEEEAQKIAEKLAKKAGLTVHEKNGTFELK, the “folding stability dG” value falls from 0.653 kcal/mol to 0.03 kcal/mol.

Compared with TKIIVNGKTFTAPTEEEAQKIAEKLAKKAGLTVHWKNGTFELK, TKIIVNGKTFTAPTEEEAQKIAEKLAKKAGLTVHKKEGTFELK is lower in “folding stability dG” value: 1.34 kcal/mol for the first, 0.63 kcal/mol for the second.

First: TKIIVNGKTFTAPTEEEAQKIAEKLAKKAGLTVHKKMGTFELK
Second: TKIIVNGKTFTAPTEEEAQKIAEKLAKKAGLTVHKKIGTFELK
The “folding stability dG” value of the first is higher: 0.06 kcal/mol for the first, -0.193 kcal/mol for the second.

First: TKIIVNGKTFTAPTEEEAQKIAEKLAKKAGLTVHKKVGTFELK
Second: TKIIVNGKTFTAPTEEEAQKIAEKLAKKAGLTVHKKPGTFELK
The “folding stability dG” value of the first is lower: -0.477 kcal/mol for the first, 0.201 kcal/mol for the second.

Going from TKIIVNGKTFTAPTEEEAQKIAEKLAKKAGLTVHKKAGTFELK to TKIIVNGKTFTAPTEEEAQKIAEKLAKKAGLTVHKKDGTFELK, the “folding stability dG” value rises from 0.339 kcal/mol to 0.873 kcal/mol.

Going from TKIIVNGKTFTAPTEEEAQKIAEKLAKKAGLTVHKKFGTFELK to TKIIVNGKTFTAPTEEEAQKIAEKLAKKAGLTVHKKTGTFELK, the “folding stability dG” value rises from -0.371 kcal/mol to -0.324 kcal/mol.

First: TKIIVNGKTFTAPTEEEAQKIAEKLAKKAGLTVHKKQGTFELK
Second: TKIIVNGKTFTAPTEEEAQKIAEKLAKKAGLTVHKKKGTFELK
The “folding stability dG” value of the first is lower: 0.281 kcal/mol for the first, 0.391 kcal/mol for the second.

Going from TKIIVNGKTFTAPTEEEAQKIAEKLAKKAGLTVHKKCGTFELK to TKIIVNGKTFTAPTEEEAQKIAEKLAKKAGLTVHKKSGTFELK, the “folding stability dG” value falls from 1.05 kcal/mol to -0.174 kcal/mol.

Going from TKIIVNGKTFTAPTEEEAQKIAEKLAKKAGLTVHKKRGTFELK to TKIIVNGKTFTAPTEEEAQKIAEKLAKKAGLTVHKKHGTFELK, the “folding stability dG” value rises from -0.324 kcal/mol to -0.068 kcal/mol.

Compared with TKIIVNGKTFTAPTEEEAQKIAEKLAKKAGLTVHKKGGTFELK, TKIIVNGKTFTAPTEEEAQKIAEKLAKKAGLTVHKKYGTFELK is lower in “folding stability dG” value: 0.697 kcal/mol for the first, -0.556 kcal/mol for the second.

With TKIIVNGKTFTAPTEEEAQKIAEKLAKKAGLTVHKKLGTFELK the “folding stability dG” value was 0.216 kcal/mol.
